“And” between values parts separate entries of the source, which are not always exact repeats. Equal values may be shown once.
Key:
[1] = target: untagged B. cereus C-SpoIISA (Bacillus cereus ATCC 14579) (UniProt Q81DD1); assay: SEC; purified untagged C-SpoIISA on Superose 6 10/300 GL, 0.4 ml/min, absorbance at 280 nm
[2] = target: His6-tagged B. cereus C-SpoIISA (pETDuetCIISA Bc; pETDuetCIISAB Bc) (Bacillus cereus ATCC 14579) (UniProt Q81DD1); assay: cross-linking; 80 μg Ni-purified His6-C-SpoIISA with glutaraldehyde (5 μl of 2.3% in 100 μl), 30 min, 37°C; 12% SDS-PAGE and Western blot

Substance	stoichiometry N [1]	stoichiometry N [2]
untagged B. cereus C-SpoIISA (from UniProt Q81DD1 1-245) (domain or fragment)	2 and 3	–
His6-tagged B. cereus C-SpoIISA (pETDuetCIISA Bc; pETDuetCIISAB Bc) (from UniProt Q81DD1 1-245) (domain or fragment)	–	2 and 3
